Target: human recombinant FOXO1 (Origene #TP300477) (UniProt Q12778)
Sequence (Q12778 whole entry): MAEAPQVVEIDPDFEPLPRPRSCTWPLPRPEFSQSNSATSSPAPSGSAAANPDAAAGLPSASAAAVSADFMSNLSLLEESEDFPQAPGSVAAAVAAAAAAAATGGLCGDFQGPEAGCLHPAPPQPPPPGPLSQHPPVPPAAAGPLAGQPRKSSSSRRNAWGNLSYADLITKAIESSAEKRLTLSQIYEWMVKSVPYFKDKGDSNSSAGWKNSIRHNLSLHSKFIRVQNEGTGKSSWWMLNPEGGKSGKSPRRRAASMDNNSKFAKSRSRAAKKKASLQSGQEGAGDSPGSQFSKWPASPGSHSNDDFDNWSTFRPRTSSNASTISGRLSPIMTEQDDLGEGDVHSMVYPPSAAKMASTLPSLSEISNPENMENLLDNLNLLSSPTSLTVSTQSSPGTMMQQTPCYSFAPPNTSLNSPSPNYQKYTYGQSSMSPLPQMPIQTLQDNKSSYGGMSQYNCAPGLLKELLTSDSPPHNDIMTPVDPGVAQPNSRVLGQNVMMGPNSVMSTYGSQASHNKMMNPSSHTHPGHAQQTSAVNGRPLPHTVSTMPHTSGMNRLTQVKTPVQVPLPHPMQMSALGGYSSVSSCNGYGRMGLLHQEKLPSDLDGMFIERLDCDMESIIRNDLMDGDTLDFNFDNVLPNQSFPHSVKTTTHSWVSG

Sequence of microtubule-associated Ser/Thr kinase 4 (MAST4), immunoprecipitated from lysates of neuron-differentiated SH-SY5Y cells or of human temporal lobe autopsy samples (chain, as listed by the source): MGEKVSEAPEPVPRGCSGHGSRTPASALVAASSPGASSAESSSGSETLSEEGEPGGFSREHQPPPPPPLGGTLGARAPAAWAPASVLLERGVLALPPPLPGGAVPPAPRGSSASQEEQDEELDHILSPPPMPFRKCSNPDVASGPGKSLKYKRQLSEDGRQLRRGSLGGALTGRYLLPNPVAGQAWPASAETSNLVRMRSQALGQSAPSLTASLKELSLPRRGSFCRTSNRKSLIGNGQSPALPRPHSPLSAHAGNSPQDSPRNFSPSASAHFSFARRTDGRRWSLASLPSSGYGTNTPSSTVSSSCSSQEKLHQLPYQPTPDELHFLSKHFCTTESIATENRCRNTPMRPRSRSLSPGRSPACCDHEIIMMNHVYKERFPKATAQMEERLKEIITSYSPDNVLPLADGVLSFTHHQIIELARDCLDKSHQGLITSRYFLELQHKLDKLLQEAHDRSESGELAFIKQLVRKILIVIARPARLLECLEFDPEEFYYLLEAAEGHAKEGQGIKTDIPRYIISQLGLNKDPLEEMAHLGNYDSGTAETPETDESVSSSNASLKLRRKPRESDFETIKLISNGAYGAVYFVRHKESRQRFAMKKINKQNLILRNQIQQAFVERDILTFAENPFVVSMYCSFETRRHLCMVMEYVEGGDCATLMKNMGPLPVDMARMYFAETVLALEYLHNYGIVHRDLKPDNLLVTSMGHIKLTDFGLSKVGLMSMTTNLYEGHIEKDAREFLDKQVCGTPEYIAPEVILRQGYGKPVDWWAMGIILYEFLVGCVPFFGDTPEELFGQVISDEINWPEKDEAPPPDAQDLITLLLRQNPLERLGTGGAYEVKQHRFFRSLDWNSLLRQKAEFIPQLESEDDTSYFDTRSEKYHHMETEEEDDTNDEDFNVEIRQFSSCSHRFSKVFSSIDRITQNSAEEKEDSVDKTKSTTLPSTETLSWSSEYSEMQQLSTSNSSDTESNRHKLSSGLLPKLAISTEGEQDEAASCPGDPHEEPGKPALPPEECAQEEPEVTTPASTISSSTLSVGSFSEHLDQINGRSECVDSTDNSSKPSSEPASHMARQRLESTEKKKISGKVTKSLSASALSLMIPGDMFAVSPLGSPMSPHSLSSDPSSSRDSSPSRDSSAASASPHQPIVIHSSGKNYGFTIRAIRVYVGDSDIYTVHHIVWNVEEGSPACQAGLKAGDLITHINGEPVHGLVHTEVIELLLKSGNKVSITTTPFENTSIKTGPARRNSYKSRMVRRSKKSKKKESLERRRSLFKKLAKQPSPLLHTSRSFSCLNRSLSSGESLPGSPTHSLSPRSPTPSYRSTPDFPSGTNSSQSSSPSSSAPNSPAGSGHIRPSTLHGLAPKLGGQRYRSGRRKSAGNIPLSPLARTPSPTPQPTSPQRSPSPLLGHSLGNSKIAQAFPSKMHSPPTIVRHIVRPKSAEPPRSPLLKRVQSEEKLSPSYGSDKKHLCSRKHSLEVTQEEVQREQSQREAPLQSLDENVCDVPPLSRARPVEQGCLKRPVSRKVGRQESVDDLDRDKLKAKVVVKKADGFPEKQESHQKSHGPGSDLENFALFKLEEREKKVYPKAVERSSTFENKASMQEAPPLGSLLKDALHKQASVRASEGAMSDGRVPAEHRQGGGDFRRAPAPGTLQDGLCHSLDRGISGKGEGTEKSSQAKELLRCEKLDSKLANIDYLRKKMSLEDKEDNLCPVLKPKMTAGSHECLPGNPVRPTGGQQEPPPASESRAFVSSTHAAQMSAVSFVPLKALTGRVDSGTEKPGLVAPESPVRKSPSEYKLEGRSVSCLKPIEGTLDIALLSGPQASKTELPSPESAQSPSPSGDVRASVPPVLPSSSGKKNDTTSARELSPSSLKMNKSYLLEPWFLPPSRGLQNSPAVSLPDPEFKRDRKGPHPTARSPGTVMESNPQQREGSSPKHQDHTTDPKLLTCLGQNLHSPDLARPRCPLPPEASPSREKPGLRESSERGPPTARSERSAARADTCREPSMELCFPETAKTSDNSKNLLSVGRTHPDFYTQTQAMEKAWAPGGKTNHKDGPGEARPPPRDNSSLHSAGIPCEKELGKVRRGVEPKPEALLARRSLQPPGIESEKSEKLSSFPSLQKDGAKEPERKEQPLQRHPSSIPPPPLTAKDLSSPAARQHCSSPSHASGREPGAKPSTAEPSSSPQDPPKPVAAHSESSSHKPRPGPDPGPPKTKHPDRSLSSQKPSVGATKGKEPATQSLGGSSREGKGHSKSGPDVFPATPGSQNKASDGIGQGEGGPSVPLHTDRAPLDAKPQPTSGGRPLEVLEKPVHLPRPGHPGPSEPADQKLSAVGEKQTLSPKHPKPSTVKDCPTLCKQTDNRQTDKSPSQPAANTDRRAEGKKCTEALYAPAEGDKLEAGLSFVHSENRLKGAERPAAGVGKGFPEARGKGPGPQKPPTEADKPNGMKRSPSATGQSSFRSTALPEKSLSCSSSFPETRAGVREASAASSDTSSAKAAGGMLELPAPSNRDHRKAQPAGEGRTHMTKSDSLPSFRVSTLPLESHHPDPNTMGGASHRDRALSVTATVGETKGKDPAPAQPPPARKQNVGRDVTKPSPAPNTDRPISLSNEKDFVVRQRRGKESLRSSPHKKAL

Row | Substance | FOXO1 phosphorylation in an in vitro kinase assay with immunoprecipitated MAST4 mutant | FOXO1 phosphorylation (pSer-FOXO1) in an in vitro kinase assay with immunoprecipitated MAST4 and recombinant FOXO1
1 | MAST4E682A, putative kinase-null MAST4 mutant | Immunoprecipitates of MAST4E682A did not phosphorylate FOXO1 (not shown) | –
2 | microtubule-associated Ser/Thr kinase 4 (MAST4), immunoprecipitated from lysates of neuron-differentiated SH-SY5Y cells or of human temporal lobe autopsy samples | – | Increased FOXO1 phosphorylation was observed in MAST4 immunoprecipitates from cells treated with 5 µM but not 50 µM 27OHC
